Source: PMC6392328

Experiments:
[1] = biological target: ASB9 bait in the pAcGFP1-C vector (pAcGFP1-ASB9) (bovine); assay: co-IP; Matchmaker Co-IP system; HEK 293 cells co-transfected with the pAcGFP1 bait and the pProLabel prey; co-immunoprecipitation with protein G Plus/A agarose beads, read by the ProLabel enzyme complementation assay (RLU every 5 min for 45 min)
[2] = biological target: pAcGFP1-53 (positive control bait) (UniProt P02340); assay: as above
Chain of UniProt P02340 (P02340 whole entry): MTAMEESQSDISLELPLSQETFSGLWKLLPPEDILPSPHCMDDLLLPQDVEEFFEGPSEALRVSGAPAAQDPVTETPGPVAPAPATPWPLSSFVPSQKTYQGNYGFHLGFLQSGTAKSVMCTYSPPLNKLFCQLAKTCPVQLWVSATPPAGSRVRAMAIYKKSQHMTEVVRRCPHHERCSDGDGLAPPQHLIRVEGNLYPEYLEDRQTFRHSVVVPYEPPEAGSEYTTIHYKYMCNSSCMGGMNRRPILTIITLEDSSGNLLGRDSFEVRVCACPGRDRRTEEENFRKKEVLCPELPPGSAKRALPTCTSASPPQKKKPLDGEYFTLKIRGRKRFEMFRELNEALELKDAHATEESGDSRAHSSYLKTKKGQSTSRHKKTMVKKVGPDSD

Substance | fold induction of ProLabel enzymatic activity after co-IP, against the negative control, at 40 minutes [1] | fold induction of ProLabel enzymatic activity after co-IP (positive control) [2]
Tumor necrosis factor alpha-induced protein 6 (TNFAIP6) in the pProLabel-C vector (natural protein) | 18 fold | 
ProLabel-T (positive control prey) (natural protein) |  | 37 fold
Hypoxia inducible factor 1, alpha subunit (HIF1A) in the pProLabel-C vector (natural protein) | 13 fold | 
